The text below walks through data of the Human Domainome abundance scans (Beltran et al. 2025).

First the molecules themselves.
B1: SAM and SH3 domain-containing protein 1, residues 630 to 700; numbered along this chain, O94885 (parent)
chain: GRPPQPKSVEDLLDRINLKEHMPTFLFNGYEDLDTFKLLEEEDLDELNIRDPEHRAVLLTAVELLQEYDSN

± gives the uncertainty stated by the source.

Variants of B1 are the subject of this series. The series can be described thus: abundance fitness (aPCA) (normalised: wild type 0, dead -1); higher = more abundant; growth selection in yeast, the domain comes from the species named. As to conditions: Homo sapiens.
Consider E53K, for which the abundance fitness was -0.131 ± 0.048.

Turning to E53W, the abundance fitness is -0.575 ± 0.075.

Consider R50N, for which the abundance fitness was -0.027 ± 0.046.

R50W: the abundance fitness worked out at 0.003 ± 0.055.

As for R50H, the abundance fitness was 0.072 ± 0.046.

As for R50T, the abundance fitness is 0.183 ± 0.037.

For I16K, the abundance fitness is -0.735 ± 0.097.

Regarding I16L, the abundance fitness was 0.128 ± 0.038.

T60L: the abundance fitness was -0.579 ± 0.046.

Regarding T60Y, the abundance fitness is -0.449 ± 0.053.

T60D: the abundance fitness stood at 0.245 ± 0.05.

As for D51V, the abundance fitness is -0.553 ± 0.051.

As to D51H, the abundance fitness was -0.447 ± 0.052.

For the variant D51R, the abundance fitness was -0.611 ± 0.046.

Consider L33I, for which the abundance fitness was -0.187 ± 0.056.

Turning to P3D, the abundance fitness was determined as 0.2 ± 0.053.

For the variant P3V, the abundance fitness amounted to 0.035 ± 0.042.

As to P3H, the abundance fitness was -0.094 ± 0.047.

As for R15D, the abundance fitness is -0.454 ± 0.065.

For the variant R15F, the abundance fitness was -0.286 ± 0.053.

As for Y30S, the abundance fitness was -0.706 ± 0.052.

On to Y30P, for which the abundance fitness was -0.767 ± 0.081.

In the case of Y30W, the abundance fitness is -0.012 ± 0.054.

Consider K7D, for which the abundance fitness was -0.213 ± 0.06.

Turning to K7V, the abundance fitness was -0.126 ± 0.043.

N28W: the abundance fitness was -0.553 ± 0.071.

Turning to N28K, the abundance fitness is -0.426 ± 0.064.

Regarding N28Y, the abundance fitness was -0.208 ± 0.048.

Consider V9L, for which the abundance fitness is 0.032 ± 0.035.

For the variant V9G, the abundance fitness was -0.868 ± 0.081.

For the variant I49H, the abundance fitness was -0.784 ± 0.068.

Take I49G: the abundance fitness was -0.785 ± 0.062.

Take I49P: the abundance fitness is -1 ± 0.08.

For the variant I49E, the abundance fitness is -0.79 ± 0.082.

S8P: the abundance fitness is -0.758 ± 0.087.

Regarding Q5C, the abundance fitness was determined as 0.007 ± 0.064.

K37N: the abundance fitness is -0.799 ± 0.074.

K37E: the abundance fitness was -0.64 ± 0.097.

Take P52S: the abundance fitness is -0.354 ± 0.039.

D11T: the abundance fitness is -0.818 ± 0.064.

Consider D11M, for which the abundance fitness was -0.97 ± 0.088.

Consider E67Y, for which the abundance fitness was -0.396 ± 0.056.

Take E67K: the abundance fitness was -0.094 ± 0.046.

With E67L, the abundance fitness was -0.468 ± 0.041.

For the variant E67D, the abundance fitness is 0.02 ± 0.053.

As for E67C, the abundance fitness is -0.3 ± 0.057.

Regarding P6E, the abundance fitness is -0.481 ± 0.084.

For the variant D34Y, the abundance fitness is -0.679 ± 0.059.

As for D34C, the abundance fitness was -0.468 ± 0.061.

On to D34S, for which the abundance fitness is -0.158 ± 0.035.

Turning to N17W, the abundance fitness is -0.956 ± 0.096.

For the variant N17V, the abundance fitness was -0.817 ± 0.062.

With R2G, the abundance fitness was -0.509 ± 0.077.

Take R2H: the abundance fitness was -0.301 ± 0.085.

As to R2I, the abundance fitness was -0.011 ± 0.047.

In the case of L44G, the abundance fitness was -0.819 ± 0.065.

In the case of L44R, the abundance fitness was -0.904 ± 0.065.

Consider L44A, for which the abundance fitness was -0.779 ± 0.061.

With Q66I, the abundance fitness was -0.563 ± 0.054.

For the variant Q66R, the abundance fitness came out at 0.33 ± 0.034.

For L47E, the abundance fitness is -0.765 ± 0.094.

As for L47H, the abundance fitness was -0.788 ± 0.062.

L47D: the abundance fitness is -0.828 ± 0.073.

On to L47R, for which the abundance fitness was -0.922 ± 0.055.

R55M: the abundance fitness was -0.896 ± 0.1.

For R55D, the abundance fitness is -0.77 ± 0.085.

Consider R55T, for which the abundance fitness is -0.89 ± 0.083.

Take R55G: the abundance fitness was -1.02 ± 0.086.

On to R55W, for which the abundance fitness was -1.14 ± 0.14.

Turning to P23N, the abundance fitness was determined as 0.102 ± 0.043.

In the case of P23F, the abundance fitness is -0.434 ± 0.057.

For the variant P23E, the abundance fitness was 0.282 ± 0.049.

P23Q: the abundance fitness is -0.017 ± 0.056.

For P23S, the abundance fitness was 0.038 ± 0.037.

On to L65N, for which the abundance fitness was -0.841 ± 0.082.

As to D32V, the abundance fitness is -0.788 ± 0.06.

Take D69A: the abundance fitness was -0.386 ± 0.047.

Regarding D69K, the abundance fitness was -0.29 ± 0.055.

Take D69C: the abundance fitness was -0.479 ± 0.094.

D69V: the abundance fitness was -0.971 ± 0.086.

Turning to L13T, the abundance fitness is -0.861 ± 0.077.

As to L13M, the abundance fitness was -0.724 ± 0.077.

As for L59T, the abundance fitness was -0.562 ± 0.055.

L59C: the abundance fitness is -0.678 ± 0.064.

Turning to L59V, the abundance fitness is -0.735 ± 0.058.

A61Y: the abundance fitness was -0.609 ± 0.082.

Consider A61I, for which the abundance fitness is -0.983 ± 0.11.

As to A61N, the abundance fitness was -0.479 ± 0.066.

For V57H, the abundance fitness is -0.166 ± 0.049.

With V57M, the abundance fitness was 0.067 ± 0.045.

For the variant V57N, the abundance fitness was 0.15 ± 0.048.

As to V57C, the abundance fitness worked out at 0.107 ± 0.051.

As for L26P, the abundance fitness is -0.825 ± 0.073.

For L26M, the abundance fitness was -0.043 ± 0.045.

As for L38S, the abundance fitness is -0.005 ± 0.036.

In the case of L38M, the abundance fitness was -0.011 ± 0.05.

Consider M22S, for which the abundance fitness was -0.375 ± 0.04.

Take M22L: the abundance fitness turned out to be 0.377 ± 0.032.

For M22W, the abundance fitness was 0.281 ± 0.041.

For the variant M22F, the abundance fitness was 0.081 ± 0.043.

In the case of M22V, the abundance fitness came out at 0.046 ± 0.035.

As for F36Y, the abundance fitness was -0.878 ± 0.095.

On to L39S, for which the abundance fitness is -0.818 ± 0.053.

With H54S, the abundance fitness was -0.408 ± 0.04.

Regarding H54P, the abundance fitness is -0.733 ± 0.066.

With F27D, the abundance fitness worked out at 0.446 ± 0.046.

F27P: the abundance fitness was -0.655 ± 0.061.

As to F27Y, the abundance fitness was 0.122 ± 0.045.

For F27R, the abundance fitness came out at 0.38 ± 0.033.

For the variant A56H, the abundance fitness is -0.057 ± 0.037.

As for A56G, the abundance fitness was -0.337 ± 0.05.

A56T: the abundance fitness is -0.114 ± 0.035.

For the variant D45W, the abundance fitness is -0.499 ± 0.064.

Turning to D45C, the abundance fitness is -0.416 ± 0.053.

As to E41R, the abundance fitness was -0.499 ± 0.054.

As for E41S, the abundance fitness was -0.34 ± 0.042.

On to L12P, for which the abundance fitness was -0.916 ± 0.093.

In the case of L12Y, the abundance fitness is -0.672 ± 0.087.

L12A: the abundance fitness is -0.846 ± 0.065.

On to L12K, for which the abundance fitness is -0.99 ± 0.12.

Consider L12H, for which the abundance fitness is -0.924 ± 0.096.

With F25L, the abundance fitness is -0.266 ± 0.041.

In the case of N48R, the abundance fitness is -0.319 ± 0.08.

Regarding N48S, the abundance fitness is -0.388 ± 0.08.

Regarding N48Q, the abundance fitness was -0.393 ± 0.13.

For the variant H21S, the abundance fitness is -0.785 ± 0.05.

H21A: the abundance fitness is -0.85 ± 0.068.

In the case of H21N, the abundance fitness is -0.689 ± 0.071.

Regarding H21T, the abundance fitness was -0.685 ± 0.061.

With E31I, the abundance fitness is -0.288 ± 0.049.

For E31H, the abundance fitness stood at 0.195 ± 0.038.

Consider E31P, for which the abundance fitness was -0.15 ± 0.039.

Turning to N71D, the abundance fitness stood at 0.197 ± 0.047.

Take N71P: the abundance fitness is 0.005 ± 0.051.

As to N71Q, the abundance fitness stood at 0.121 ± 0.059.

For the variant E42I, the abundance fitness was -0.477 ± 0.055.

As for E42G, the abundance fitness turned out to be 0.013 ± 0.049.

For the variant E42V, the abundance fitness was -0.302 ± 0.046.

For the variant L18Y, the abundance fitness is -0.863 ± 0.089.

Take L18H: the abundance fitness is -0.714 ± 0.076.

For E10F, the abundance fitness is -0.443 ± 0.054.

Turning to E10A, the abundance fitness is -0.145 ± 0.046.

As to E10N, the abundance fitness is -0.53 ± 0.061.

As for E10Y, the abundance fitness is -0.418 ± 0.055.

For Y68C, the abundance fitness is 0.105 ± 0.051.

Turning to Y68M, the abundance fitness turned out to be 0.025 ± 0.053.

With Y68N, the abundance fitness is 0.138 ± 0.053.

Y68A: the abundance fitness was 0.245 ± 0.039.

L58P: the abundance fitness is -0.501 ± 0.067.

In the case of L58A, the abundance fitness was -0.531 ± 0.06.

As to E20F, the abundance fitness is -0.502 ± 0.071.

Regarding E40Q, the abundance fitness stood at 0.222 ± 0.049.

Take K19Y: the abundance fitness was -0.532 ± 0.06.

As for K19D, the abundance fitness is -0.643 ± 0.079.

K19I: the abundance fitness was -0.073 ± 0.042.

Regarding D14S, the abundance fitness was -0.168 ± 0.039.

Turning to D14K, the abundance fitness was -0.273 ± 0.065.

Regarding G1T, the abundance fitness worked out at 0.016 ± 0.087.

As to G1C, the abundance fitness is -0.067 ± 0.085.

In the case of G1L, the abundance fitness came out at 0.036 ± 0.066.

In the case of E63Q, the abundance fitness is -0.018 ± 0.046.

Consider E63S, for which the abundance fitness worked out at 0.004 ± 0.034.

L64F: the abundance fitness was -0.117 ± 0.043.

With L64N, the abundance fitness was determined as 0.295 ± 0.041.

Consider L64S, for which the abundance fitness is 0.31 ± 0.033.

L64R: the abundance fitness was 0.199 ± 0.035.

Take L64A: the abundance fitness turned out to be 0.343 ± 0.036.
